Measurements reported in US20220088146A1, “Melanocortin Receptor-Specific Peptide Formulations and Methods for Gastrointestinal Tract-Specific Delivery” (Palatin Technologies, Inc., priority 2018, published 2022).
Bridge positions count the residues as written; N and C are the ends. Square brackets hold non-standard residues; d marks the D form. Nle = CCCC[C@H](N)C(=O)O; Dab = NCC[C@H](N)C(=O)O; Dap = NC[C@H](N)C(=O)O

Experiments:
[1] = biological target: human melanocortin-1 receptor (human) (UniProt Q01726); test: [I125]-NDP-α-MSH competition, hMC1r HEK-293 membranes
Sequence of human melanocortin-1 receptor (human) (Q01726 whole entry): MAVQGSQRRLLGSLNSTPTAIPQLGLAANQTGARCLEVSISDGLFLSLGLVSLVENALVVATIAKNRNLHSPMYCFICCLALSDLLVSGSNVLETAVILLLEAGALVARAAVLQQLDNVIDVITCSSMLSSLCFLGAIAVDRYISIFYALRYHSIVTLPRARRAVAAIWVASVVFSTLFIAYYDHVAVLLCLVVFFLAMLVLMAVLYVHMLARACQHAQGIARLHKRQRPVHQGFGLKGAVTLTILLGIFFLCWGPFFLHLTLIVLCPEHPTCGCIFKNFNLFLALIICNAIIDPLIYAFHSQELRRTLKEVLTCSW

[2] = biological target: human melanocortin-4 receptor (human) (UniProt P32245); test: [I125]-NDP-α-MSH competition, hMC4r HEK-293 membranes
Sequence of human melanocortin-4 receptor (human) (P32245 whole entry): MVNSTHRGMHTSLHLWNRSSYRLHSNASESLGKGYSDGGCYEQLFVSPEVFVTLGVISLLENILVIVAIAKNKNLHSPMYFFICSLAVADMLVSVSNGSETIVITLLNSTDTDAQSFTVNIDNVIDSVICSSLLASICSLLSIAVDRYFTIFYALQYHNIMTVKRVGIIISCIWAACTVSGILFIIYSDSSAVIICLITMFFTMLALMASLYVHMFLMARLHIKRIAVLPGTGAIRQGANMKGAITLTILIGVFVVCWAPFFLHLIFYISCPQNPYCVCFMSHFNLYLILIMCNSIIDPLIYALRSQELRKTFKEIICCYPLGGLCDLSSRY

[3] = biological target: human melanocortin-1 receptor (human) (UniProt Q01726); test: cell-based or functional assay

B1: Ac-Nle-cyclo(Glu-His-D-Phe-Ala-Dab)-Trp-NH2 (peptide)
peptide: Ac-[Nle]EH[dF]A[Dab]W-NH2
modifications: lactam 2-6
SMILES: CCCC[C@H](NC(C)=O)C(=O)N[C@H]1CCC(=O)NCC[C@@H](C(=O)N[C@@H](Cc2c[nH]c3ccccc23)C(N)=O)NC(=O)[C@H](C)NC(=O)[C@@H](Cc2ccccc2)NC(=O)[C@H](Cc2c[nH]cn2)NC1=O
- Ki [1]: 0.8 nM
- Ki [2]: 10000 nM
- MC-1 EC50 (average; cAMP HBL) [3]: 0.115 nM
- MC-1 Emax (average; cAMP HBL) [3]: 72%

Binder: Ac-[Nle]EH[dF]R[Dab]A-NH2 (lactam 2-6) [Ac-Nle-cyclo(Glu-His-D-Phe-Arg-Dab)-Ala-NH2]
- Ki [1]: 2 nM
- Ki [2]: 7480 nM
- MC-1 EC50 (average; cAMP HBL) [3]: 0.08 nM
- MC-1 Emax (average; cAMP HBL) [3]: 97%

B2: Ac-Nle-cyclo(Asp-His-D-Phe-Arg-Dap)-Trp-NH2 (peptide)
peptide: Ac-[Nle]DH[dF]R[Dap]W-NH2
modifications: lactam 2-6
SMILES: CCCC[C@H](NC(C)=O)C(=O)N[C@H]1CC(=O)NC[C@@H](C(=O)N[C@@H](Cc2c[nH]c3ccccc23)C(N)=O)NC(=O)[C@H](CCCNC(=N)N)NC(=O)[C@@H](Cc2ccccc2)NC(=O)[C@H](Cc2c[nH]cn2)NC1=O
- Ki [1]: 2 nM
- Ki [2]: 1320 nM
- MC-1 EC50 (average; cAMP HBL) [3]: 0.195 nM
- MC-1 Emax (average; cAMP HBL) [3]: 88%

B3: Ac-Nle-cyclo(Glu-His-D-Phe-Gly-Dab)-Trp-NH2 (peptide)
peptide: Ac-[Nle]EH[dF]G[Dab]W-NH2
modifications: lactam 2-6
SMILES: CCCC[C@H](NC(C)=O)C(=O)N[C@H]1CCC(=O)NCC[C@@H](C(=O)N[C@@H](Cc2c[nH]c3ccccc23)C(N)=O)NC(=O)CNC(=O)[C@@H](Cc2ccccc2)NC(=O)[C@H](Cc2c[nH]cn2)NC1=O
- Ki [1]: 9 nM
- Ki [2]: 10000 nM
- MC-1 EC50 (average; cAMP HBL) [3]: 4 nM
- MC-1 Emax (average; cAMP HBL) [3]: 59%

B4: Ac-Nle-cyclo(Glu-Pro-D-Phe-Arg-Dab)-Trp-NH2 (peptide)
peptide: Ac-[Nle]EP[dF]R[Dab]W-NH2
modifications: lactam 2-6
SMILES: CCCC[C@H](NC(C)=O)C(=O)N[C@H]1CCC(=O)NCC[C@@H](C(=O)N[C@@H](Cc2c[nH]c3ccccc23)C(N)=O)NC(=O)[C@H](CCCNC(=N)N)NC(=O)[C@@H](Cc2ccccc2)NC(=O)[C@@H]2CCCN2C1=O
- Ki [1]: 3 nM
- Ki [2]: 185 nM
- MC-1 EC50 (average; cAMP HBL) [3]: 0.18 nM
- MC-1 Emax (average; cAMP HBL) [3]: 97%

B5: Ac-Nle-cyclo(Glu-His-D-Phe-Arg-Dab)-Lys-NH2 (peptide)
peptide: Ac-[Nle]EH[dF]R[Dab]K-NH2
modifications: lactam 2-6
SMILES: CCCC[C@H](NC(C)=O)C(=O)N[C@H]1CCC(=O)NCC[C@@H](C(=O)N[C@@H](CCCCN)C(N)=O)NC(=O)[C@H](CCCNC(=N)N)NC(=O)[C@@H](Cc2ccccc2)NC(=O)[C@H](Cc2c[nH]cn2)NC1=O
- Ki [1]: 2 nM
- Ki [2]: 7380 nM
- MC-1 EC50 (average; cAMP HBL) [3]: 0.175 nM
- MC-1 Emax (average; cAMP HBL) [3]: 91%
